B1: GpH7-A5/GpH7-B3 variant (T335_04F)/GpL16-k0 (antibody, human IgG1, kappa)
heavy 1: not shown
heavy 2: not shown
light: DIVMTQSPLSLPVTPGEPASISCQASESLVHSNRNTYLHWYLQKPGQSPQLLIYKVSNRFSGVPDRFSGSGSGTDFTLKISRVEAEDVGVYYCSQNTHVPPTFGQGTKVEIERTVAAPSVFIFPPSDEQLKSGTASVVCLLNNFYPREAKVQWKVDNALQSGNSQESVTEQDSKDSTYSLSSTLTLSKADYEKHKVYACEVTHQGLSSPVTKSFNRGEC
notes: Heterodimerized; only the B3 chain altered; also called He Ab T335_04F
B2: GpH7-A5/GpH7-B3 variant (S337_06M)/GpL16-k0 (antibody, human IgG1, kappa)
heavy 1: not shown
heavy 2: not shown
light: B1 light
notes: Heterodimerized; only the B3 chain altered; also called He Ab S337_06M
B3: GpH7-A5/GpH7-B3 variant (S337_15Y)/GpL16-k0 (antibody, human IgG1, kappa)
heavy 1: not shown
heavy 2: not shown
light: B1 light
notes: Heterodimerized; only the B3 chain altered; also called He Ab S337_15Y
B4: GpH7-A5/GpH7-B3 variant (T335_06M)/GpL16-k0 (antibody, human IgG1, kappa)
heavy 1: not shown
heavy 2: not shown
light: B1 light
notes: Heterodimerized; only the B3 chain altered; also called He Ab T335_06M
B5: GpH7-A5/GpH7-B3 variant (H268_18N)/GpL16-k0 (antibody, human IgG1, kappa)
heavy 1: not shown
heavy 2: not shown
light: B1 light
notes: Heterodimerized; only the B3 chain altered; also called He Ab H268_18N
B6: GpH7-A5/GpH7-B3 variant (T335_16H)/GpL16-k0 (antibody, human IgG1, kappa)
heavy 1: not shown
heavy 2: not shown
light: B1 light
notes: Heterodimerized; only the B3 chain altered; also called He Ab T335_16H
B7: GpH7-A5/GpH7-B3 variant (T335_20W)/GpL16-k0 (antibody, human IgG1, kappa)
heavy 1: not shown
heavy 2: not shown
light: B1 light
notes: Heterodimerized; only the B3 chain altered; also called He Ab T335_20W
B8: GpH7-A5/GpH7-B3 variant (I336_13S)/GpL16-k0 (antibody, human IgG1, kappa)
heavy 1: not shown
heavy 2: not shown
light: B1 light
notes: Heterodimerized; only the B3 chain altered; also called He Ab I336_13S
B9: GpH7-A5/GpH7-B3 variant (S337_04F)/GpL16-k0 (antibody, human IgG1, kappa)
heavy 1: not shown
heavy 2: not shown
light: B1 light
notes: Heterodimerized; only the B3 chain altered; also called He Ab S337_04F
B10: GpH7-A5/GpH7-B3 variant (T335_05P)/GpL16-k0 (antibody, human IgG1, kappa)
heavy 1: not shown
heavy 2: not shown
light: B1 light
notes: Heterodimerized; only the B3 chain altered; also called He Ab T335_05P
B11: GpH7-A5/GpH7-B3 variant (A330_19Q)/GpL16-k0 (antibody, human IgG1, kappa)
heavy 1: not shown
heavy 2: not shown
light: B1 light
notes: Heterodimerized; only the B3 chain altered; also called He Ab A330_19Q
B12: GpH7-A5/GpH7-B3 variant (T335_09D)/GpL16-k0 (antibody, human IgG1, kappa)
heavy 1: not shown
heavy 2: not shown
light: B1 light
notes: Heterodimerized; only the B3 chain altered; also called He Ab T335_09D
B13: GpH7-A5/GpH7-B3 variant (H268_01G)/GpL16-k0 (antibody, human IgG1, kappa)
heavy 1: not shown
heavy 2: not shown
light: B1 light
notes: Heterodimerized; only the B3 chain altered; also called He Ab H268_01G
B14: GpH7-A5/GpH7-B3 variant (T335_08L)/GpL16-k0 (antibody, human IgG1, kappa)
heavy 1: not shown
heavy 2: not shown
light: B1 light
notes: Heterodimerized; only the B3 chain altered; also called He Ab T335_08L
B15: GpH7-A5/GpH7-B3 variant (I336_08L)/GpL16-k0 (antibody, human IgG1, kappa)
heavy 1: not shown
heavy 2: not shown
light: B1 light
notes: Heterodimerized; only the B3 chain altered; also called He Ab I336_08L
B16: GpH7-A5/GpH7-B3 variant (S337_07I)/GpL16-k0 (antibody, human IgG1, kappa)
heavy 1: not shown
heavy 2: not shown
light: B1 light
notes: Heterodimerized; only the B3 chain altered; also called He Ab S337_07I
B17: GpH7-A5/GpH7-B3 variant (Y300_20W)/GpL16-k0 (antibody, human IgG1, kappa)
heavy 1: not shown
heavy 2: not shown
light: B1 light
notes: Heterodimerized; only the B3 chain altered; also called He Ab Y300_20W
B18: GpH7-A5/GpH7-B3 variant (A330_20W)/GpL16-k0 (antibody, human IgG1, kappa)
heavy 1: not shown
heavy 2: not shown
light: B1 light
notes: Heterodimerized; only the B3 chain altered; also called He Ab A330_20W
B19: GpH7-A5/GpH7-B3 variant (Y300_02A)/GpL16-k0 (antibody, human IgG1, kappa)
heavy 1: not shown
heavy 2: not shown
light: B1 light
notes: Heterodimerized; only the B3 chain altered; also called He Ab Y300_02A
B20: GpH7-A5/GpH7-B3 variant (S337_19Q)/GpL16-k0 (antibody, human IgG1, kappa)
heavy 1: not shown
heavy 2: not shown
light: B1 light
notes: Heterodimerized; only the B3 chain altered; also called He Ab S337_19Q
B21: GpH7-A5/GpH7-B3 variant (T335_18N)/GpL16-k0 (antibody, human IgG1, kappa)
heavy 1: not shown
heavy 2: not shown
light: B1 light
notes: Heterodimerized; only the B3 chain altered; also called He Ab T335_18N
B22: GpH7-A5/GpH7-B3 variant (Y296_06M)/GpL16-k0 (antibody, human IgG1, kappa)
heavy 1: not shown
heavy 2: not shown
light: B1 light
notes: Heterodimerized; only the B3 chain altered; also called He Ab Y296_06M
B23: GpH7-A5/GpH7-B3 variant (Y300_19Q)/GpL16-k0 (antibody, human IgG1, kappa)
heavy 1: not shown
heavy 2: not shown
light: B1 light
notes: Heterodimerized; only the B3 chain altered; also called He Ab Y300_19Q
B24: GpH7-A5/GpH7-B3 variant (I336_14T)/GpL16-k0 (antibody, human IgG1, kappa)
heavy 1: not shown
heavy 2: not shown
light: B1 light
notes: Heterodimerized; only the B3 chain altered; also called He Ab I336_14T
B25: GpH7-A5/GpH7-B3 variant (Y300_06M)/GpL16-k0 (antibody, human IgG1, kappa)
heavy 1: not shown
heavy 2: not shown
light: B1 light
notes: Heterodimerized; only the B3 chain altered; also called He Ab Y300_06M
B26: GpH7-A5/GpH7-B3 variant (S337_08L)/GpL16-k0 (antibody, human IgG1, kappa)
heavy 1: not shown
heavy 2: not shown
light: B1 light
notes: Heterodimerized; only the B3 chain altered; also called He Ab S337_08L
B27: GpH7-A5/GpH7-B3 variant (T335_12R)/GpL16-k0 (antibody, human IgG1, kappa)
heavy 1: not shown
heavy 2: not shown
light: B1 light
notes: Heterodimerized; only the B3 chain altered; also called He Ab T335_12R
B28: GpH7-A5/GpH7-B3 variant (S337_10E)/GpL16-k0 (antibody, human IgG1, kappa)
heavy 1: not shown
heavy 2: not shown
light: B1 light
notes: Heterodimerized; only the B3 chain altered; also called He Ab S337_10E
B29: GpH7-A5/GpH7-B3 variant (Y300_13S)/GpL16-k0 (antibody, human IgG1, kappa)
heavy 1: not shown
heavy 2: not shown
light: B1 light
notes: Heterodimerized; only the B3 chain altered; also called He Ab Y300_13S

biological target: T1, FcγRIa extracellular domain with C-terminal His tag (human, UniProt P12314 16-292); assay: SPR (Biacore), captured antibody, FcγRIa analyte; relative to GpH7-A5/GpH7-B3/GpL16-k0 = 100
T1 construct: extracellular domain; Expressed in FreeStyle293 cells; used as analyte in Biacore; also called FcgRI; 1a; not shown: His tag at the C terminus
T1 sequence (P12314 16-292): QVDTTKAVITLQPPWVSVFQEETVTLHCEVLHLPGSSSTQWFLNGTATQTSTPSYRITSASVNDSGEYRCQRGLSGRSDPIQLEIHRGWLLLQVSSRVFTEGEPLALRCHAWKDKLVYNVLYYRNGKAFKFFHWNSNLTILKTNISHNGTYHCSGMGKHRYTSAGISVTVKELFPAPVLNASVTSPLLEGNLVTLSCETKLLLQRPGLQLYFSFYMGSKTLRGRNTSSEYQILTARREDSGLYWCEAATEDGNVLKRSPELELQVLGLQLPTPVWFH

| Binder | He/Con_1a |
| --- | --- |
| B1 | 105 % of control |
| B2 | 107 % of control |
| B3 | 104 % of control |
| B4 | 107 % of control |
| B5 | 108 % of control |
| B6 | 106 % of control |
| B7 | 106 % of control |
| B8 | 102 % of control |
| B9 | 106 % of control |
| B10 | 106 % of control |
| B11 | 105 % of control |
| B12 | 108 % of control |
| B13 | 107 % of control |
| B14 | 115 % of control |
| B15 | 107 % of control |
| B16 | 105 % of control |
| B17 | 112 % of control |
| B18 | 108 % of control |
| B19 | 112 % of control |
| B20 | 105 % of control |
| B21 | 106 % of control |
| B22 | 104 % of control |
| B23 | 112 % of control |
| B24 | 104 % of control |
| B25 | 112 % of control |
| B26 | 105 % of control |
| B27 | 113 % of control |
| B28 | 106 % of control |
| B29 | 111 % of control |

From patent publication US20180155451A1 (published 2018)
